Data published in article PMC8809517, “Cofactor-independent RNA editing by a synthetic S-type PPR protein”.

T1: GFP-9S library array, motif 4 ND N98K;D124Y (synthetic construct, N98K;D124Y)
T1 chain: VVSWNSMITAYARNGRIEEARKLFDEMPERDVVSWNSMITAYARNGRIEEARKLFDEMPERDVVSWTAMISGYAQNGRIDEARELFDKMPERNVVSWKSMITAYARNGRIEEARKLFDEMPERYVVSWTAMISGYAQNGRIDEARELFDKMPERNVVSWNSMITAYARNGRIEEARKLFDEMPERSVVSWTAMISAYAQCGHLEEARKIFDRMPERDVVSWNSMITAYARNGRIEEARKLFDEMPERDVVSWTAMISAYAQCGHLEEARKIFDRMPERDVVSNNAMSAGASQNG

T2: GFP-9S library array, motif 4 ND N98F;D124Q (synthetic construct, N98F;D124Q)
T2 chain: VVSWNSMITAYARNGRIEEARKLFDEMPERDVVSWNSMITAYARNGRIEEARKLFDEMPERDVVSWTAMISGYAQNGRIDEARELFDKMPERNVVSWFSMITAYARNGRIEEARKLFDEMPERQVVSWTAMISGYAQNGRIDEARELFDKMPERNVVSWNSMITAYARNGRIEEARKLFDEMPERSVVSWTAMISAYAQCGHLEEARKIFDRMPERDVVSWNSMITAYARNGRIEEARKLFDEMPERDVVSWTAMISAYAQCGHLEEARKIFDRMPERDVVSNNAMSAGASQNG

T3: GFP-9S library array, motif 4 ND N98W;D124F (synthetic construct, N98W;D124F)
T3 chain: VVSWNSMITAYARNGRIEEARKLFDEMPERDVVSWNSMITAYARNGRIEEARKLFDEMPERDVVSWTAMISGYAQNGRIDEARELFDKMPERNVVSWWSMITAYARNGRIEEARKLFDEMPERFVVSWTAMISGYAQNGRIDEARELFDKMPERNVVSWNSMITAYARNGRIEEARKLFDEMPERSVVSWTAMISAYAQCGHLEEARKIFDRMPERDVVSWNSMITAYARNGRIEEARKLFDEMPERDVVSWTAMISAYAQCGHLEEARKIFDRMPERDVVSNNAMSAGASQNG

T4: GFP-9S library array, motif 4 ND N98Y;D124H (synthetic construct, N98Y;D124H)
T4 chain: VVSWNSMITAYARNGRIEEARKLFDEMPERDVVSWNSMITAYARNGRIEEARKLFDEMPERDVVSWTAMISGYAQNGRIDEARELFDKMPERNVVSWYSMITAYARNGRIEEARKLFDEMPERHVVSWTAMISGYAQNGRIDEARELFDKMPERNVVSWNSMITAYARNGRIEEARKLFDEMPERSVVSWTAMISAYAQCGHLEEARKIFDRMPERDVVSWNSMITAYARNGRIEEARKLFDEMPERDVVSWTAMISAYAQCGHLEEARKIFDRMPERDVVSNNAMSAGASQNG

T5: GFP-9S library array, motif 4 ND N98F;D124W (synthetic construct, N98F;D124W)
T5 chain: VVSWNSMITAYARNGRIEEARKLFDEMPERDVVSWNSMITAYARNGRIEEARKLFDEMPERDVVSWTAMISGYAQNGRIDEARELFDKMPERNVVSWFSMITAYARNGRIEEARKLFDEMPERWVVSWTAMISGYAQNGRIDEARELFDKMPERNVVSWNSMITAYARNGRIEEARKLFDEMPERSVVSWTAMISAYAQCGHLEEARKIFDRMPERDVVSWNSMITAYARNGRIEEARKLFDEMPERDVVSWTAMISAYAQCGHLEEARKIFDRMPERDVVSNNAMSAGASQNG


How the values were obtained:
Assay in all cases: high-throughput RNA pulldown from lysate on Ni-NTA beads; HRP: 50 mM Tris pH 8, 150 mM NaCl, 1 mM beta-mercaptoethanol, 50 ug/ml BSA, 3 ug/ml yeast RNA, 0.5% heparin; ITC and FP: Tris pH 8, 200 mM KCl, 5% glycerol; MST: 50 mM Tris pH 8, 200 mM NaCl, 1 mM DTT, BSA, heparin, 0.05% Tween 20
Conditions in all cases: tags: N-terminal His-eGFP
[1] = target: T1, GFP-9S library array, motif 4 ND …
[2] = target: T2, GFP-9S library array, motif 4 ND …
[3] = target: T3, GFP-9S library array, motif 4 ND …
[4] = target: T4, GFP-9S library array, motif 4 ND …
[5] = target: T5, GFP-9S library array, motif 4 ND …

Binder	Kd ([1]; label: 5' Cy5) [nM]	Kd ([2]; label: 5' Cy5) [nM]	Kd ([3]; label: 5' Cy5) [nM]	Kd ([4]; label: 5' Cy5) [nM]	Kd ([5]; label: 5' Cy5) [nM]	Kd ([1]; label: 5' IRDye 800CW) [nM]	Kd ([2]; label: 5' IRDye 800CW) [nM]	Kd ([3]; label: 5' IRDye 800CW) [nM]	Kd ([4]; label: 5' IRDye 800CW) [nM]	Kd ([5]; label: 5' IRDye 800CW) [nM]
AUUAGACGUGA (ssRNA) [Cy5-rpoA-G]	49.3	143	80.4	46	72.2					
AUUACACGUGA (ssRNA) [Cy5-rpoA]	62.5	158	95.8	5.06	99.3					
AUUAUACGUGA (ssRNA) [IR-rpoA-U]						128	466	273	169	364
AUUAAACGUGA (ssRNA) [IR-rpoA-A]						115	419	274	111	236
